Test results from patent US20140087995A1 (published 2014).
Blank lines part the entries; values can stand above or below the binder they belong to. Numbered stars: 1 amine (or outer) side, 2 acyl side, 3 side chain; on linkers, the order of the positions; unused ones are H or OH. Bridge positions count the residues as written; N and C are the ends. Side chains are listed from the residue outwards. Ends that are not written are not given here. * marks the point of attachment. C20 diacid = O=C(O)CCCCCCCCCCCCCCCCCCC(=O)*; γGlu = O=C(O)[C@H](CCC(=O)[*:2])N[*:1]

Assays:
[1] = biological target: T1, human calcitonin receptor (human, UniProt P30988 25-474); test: cell-based or functional assay
T1 sequence (looked up): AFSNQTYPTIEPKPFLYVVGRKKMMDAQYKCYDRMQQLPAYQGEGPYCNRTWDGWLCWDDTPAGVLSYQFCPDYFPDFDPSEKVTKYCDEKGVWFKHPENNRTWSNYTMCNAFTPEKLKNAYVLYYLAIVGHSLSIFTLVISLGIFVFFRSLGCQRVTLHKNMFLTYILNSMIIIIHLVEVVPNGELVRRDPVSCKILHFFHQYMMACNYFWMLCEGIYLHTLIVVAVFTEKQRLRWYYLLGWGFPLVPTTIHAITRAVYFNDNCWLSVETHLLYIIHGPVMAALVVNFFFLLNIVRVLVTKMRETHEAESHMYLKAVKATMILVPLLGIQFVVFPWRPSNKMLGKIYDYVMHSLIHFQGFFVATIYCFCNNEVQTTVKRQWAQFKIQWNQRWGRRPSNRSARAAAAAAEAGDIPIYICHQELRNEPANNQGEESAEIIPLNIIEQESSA

[2] = biological target: T2, human amylin receptor (amylin 3(a) receptor: human calcitonin receptor plus RAMP-3) (human, UniProt P30988 25-474; O60896 24-148, limits assumed); test: cell-based or functional assay
T2 sequence (looked up) 1: T1 sequence (looked up)
T2 sequence (looked up) 2: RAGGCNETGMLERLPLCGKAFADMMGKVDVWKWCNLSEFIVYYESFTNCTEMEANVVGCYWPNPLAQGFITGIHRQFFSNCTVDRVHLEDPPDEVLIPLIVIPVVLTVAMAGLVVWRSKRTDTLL

[3] = biological target: T2, human amylin receptor (amylin 3(a) …); test: SPA competition binding, membranes of Amylin 3(a)/CRE-luc BHK cells, displacement of 125I-rat amylin (Assay V)
In short: (§1)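 Cell membranes were prepared by homogenisation in Na-HEPES/EDTA buffer, pH 7.4, and stored at −80° C. They were then coupled to SPA beads at 35 ng/μL final and exposed to compounds in assay buffer containing CaCl2, MgCl₂, OA and Tween20. After 120 min at 25° C, plates were counted and IC₅₀ derived.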

[4] = biological target: T3, human amylin receptor (amylin 3(a) receptor: human calcitonin receptor with RAMP-3) (human, UniProt P30988 25-474; O60896 24-148, limits assumed); test: SPA competition binding on membranes of BHK cells with human calcitonin receptor + RAMP-3; displacement of 125I-rat amylin (Assay V)
T3 construct: whole, on cells; Whole cells in the luciferase assay (Assay II a); also called hAmylin-R; hAmylinR
T3 sequence (looked up) 1: T1 sequence (looked up)
T3 sequence (looked up) 2: T2 sequence (looked up) 2
In short: as §1

[5] = biological target: T4, human calcitonin receptor (human, UniProt P30988 25-474); test: cell-based or functional assay; remark: listed apart in the source
T4 sequence (looked up): T1 sequence (looked up)

B3: N^ε1-[(4S)-4-carboxy-4-[[(4S)-4-carboxy-4-(19-carboxynonadecanoylamino)butanoyl]amino]butanoyl]-[Arg17,Pro21,Pro27,Pro31,Pro34,Arg35]-h-amylin (peptide)
peptide: K([γGlu-γGlu-C20 diacid])CNTATCATQRLANFLRHSSPNFGAIPSSTPVGPRTY-NH2
modifications: disulfide 2-7; N-terminus assumed
SMILES: CC[C@H](C)[C@H](NC(=O)[C@H](C)NC(=O)CNC(=O)[C@H](Cc1ccccc1)NC(=O)[C@H](CC(N)=O)NC(=O)[C@@H]1CCCN1C(=O)[C@H](CO)NC(=O)[C@H](CO)NC(=O)[C@H](Cc1c[nH]cn1)NC(=O)[C@H](CCCNC(=N)N)NC(=O)[C@H](CC(C)C)NC(=O)[C@H](Cc1ccccc1)NC(=O)[C@H](CC(N)=O)NC(=O)[C@H](C)NC(=O)[C@H](CC(C)C)NC(=O)[C@H](CCCNC(=N)N)NC(=O)[C@H](CCC(N)=O)NC(=O)[C@@H](NC(=O)[C@H](C)NC(=O)[C@@H]1CSSC[C@H](NC(=O)[C@@H](N)CCCCNC(=O)CC[C@H](NC(=O)CC[C@H](NC(=O)CCCCCCCCCCCCCCCCCCC(=O)O)C(=O)O)C(=O)O)C(=O)N[C@@H](CC(N)=O)C(=O)N[C@@H]([C@@H](C)O)C(=O)N[C@@H](C)C(=O)N[C@@H]([C@@H](C)O)C(=O)N1)[C@@H](C)O)C(=O)N1CCC[C@H]1C(=O)N[C@@H](CO)C(=O)N[C@@H](CO)C(=O)N[C@H](C(=O)N1CCC[C@H]1C(=O)N[C@H](C(=O)NCC(=O)N1CCC[C@H]1C(=O)N[C@@H](CCCNC(=N)N)C(=O)N[C@H](C(=O)N[C@@H](Cc1ccc(O)cc1)C(N)=O)[C@@H](C)O)C(C)C)[C@@H](C)O
IC50 [4]: 0.88 nM
Ratio hCT/hAmylin funct. [5]: 26 ratio
hCTR funct. EC50 (pM) [5]: 8660 pM

B4: N^ε1-[(4S)-4-carboxy-4-(19-carboxynonadecanoylamino)butanoyl]-[Glu14,Arg17,Pro21,Pro27,Pro34,Arg35]-h-amylin (peptide)
peptide: K([γGlu-C20 diacid])CNTATCATQRLAEFLRHSSPNFGAIPSSTNVGPRTY-NH2
modifications: disulfide 2-7; N-terminus assumed
SMILES: CC[C@H](C)[C@H](NC(=O)[C@H](C)NC(=O)CNC(=O)[C@H](Cc1ccccc1)NC(=O)[C@H](CC(N)=O)NC(=O)[C@@H]1CCCN1C(=O)[C@H](CO)NC(=O)[C@H](CO)NC(=O)[C@H](Cc1c[nH]cn1)NC(=O)[C@H](CCCNC(=N)N)NC(=O)[C@H](CC(C)C)NC(=O)[C@H](Cc1ccccc1)NC(=O)[C@H](CCC(=O)O)NC(=O)[C@H](C)NC(=O)[C@H](CC(C)C)NC(=O)[C@H](CCCNC(=N)N)NC(=O)[C@H](CCC(N)=O)NC(=O)[C@@H](NC(=O)[C@H](C)NC(=O)[C@@H]1CSSC[C@H](NC(=O)[C@@H](N)CCCCNC(=O)CC[C@H](NC(=O)CCCCCCCCCCCCCCCCCCC(=O)O)C(=O)O)C(=O)N[C@@H](CC(N)=O)C(=O)N[C@@H]([C@@H](C)O)C(=O)N[C@@H](C)C(=O)N[C@@H]([C@@H](C)O)C(=O)N1)[C@@H](C)O)C(=O)N1CCC[C@H]1C(=O)N[C@@H](CO)C(=O)N[C@@H](CO)C(=O)N[C@H](C(=O)N[C@@H](CC(N)=O)C(=O)N[C@H](C(=O)NCC(=O)N1CCC[C@H]1C(=O)N[C@@H](CCCNC(=N)N)C(=O)N[C@H](C(=O)N[C@@H](Cc1ccc(O)cc1)C(N)=O)[C@@H](C)O)C(C)C)[C@@H](C)O
IC50 [4]: 0.163 nM
Ratio hCT/hAmylin funct. [5]: 17 ratio
hCTR funct. EC50 (pM) [5]: 6380 pM

Other lines, results leading:

Ratio hCT/hAmylin funct. (hCTR EC50 against hAmylin-R EC50) [1]: 1.8
hCTR funct. EC50 [1]: 185 pM
hAmylin-R funct. EC50 [2]: 101 pM
IC50 [3]: 0.142 nM
B1: N^ε1-[(4S)--4-carboxy-4-(19-carboxynonadecanoylamino)butanoyl]-[Glu14,Arg17,Pro21,Pro27,Pro37]-h-amylin (peptide)
peptide: K([γGlu-C20 diacid])CNTATCATQRLAEFLRHSSPNFGAIPSSTNVGSNTP-NH2
modifications: disulfide 2-7; N-terminus assumed
SMILES: CC[C@H](C)[C@H](NC(=O)[C@H](C)NC(=O)CNC(=O)[C@H](Cc1ccccc1)NC(=O)[C@H](CC(N)=O)NC(=O)[C@@H]1CCCN1C(=O)[C@H](CO)NC(=O)[C@H](CO)NC(=O)[C@H](Cc1c[nH]cn1)NC(=O)[C@H](CCCNC(=N)N)NC(=O)[C@H](CC(C)C)NC(=O)[C@H](Cc1ccccc1)NC(=O)[C@H](CCC(=O)O)NC(=O)[C@H](C)NC(=O)[C@H](CC(C)C)NC(=O)[C@H](CCCNC(=N)N)NC(=O)[C@H](CCC(N)=O)NC(=O)[C@@H](NC(=O)[C@H](C)NC(=O)[C@@H]1CSSC[C@H](NC(=O)[C@@H](N)CCCCNC(=O)CC[C@H](NC(=O)CCCCCCCCCCCCCCCCCCC(=O)O)C(=O)O)C(=O)N[C@@H](CC(N)=O)C(=O)N[C@@H]([C@@H](C)O)C(=O)N[C@@H](C)C(=O)N[C@@H]([C@@H](C)O)C(=O)N1)[C@@H](C)O)C(=O)N1CCC[C@H]1C(=O)N[C@@H](CO)C(=O)N[C@@H](CO)C(=O)N[C@H](C(=O)N[C@@H](CC(N)=O)C(=O)N[C@H](C(=O)NCC(=O)N[C@@H](CO)C(=O)N[C@@H](CC(N)=O)C(=O)N[C@H](C(=O)N1CCC[C@H]1C(N)=O)[C@@H](C)O)C(C)C)[C@@H](C)O
notes: also called compound 12

IC50 [4]: 0.281 nM
Ratio hCT/hAmylin funct. [5]: 24.9 ratio
hCTR funct. EC50 (pM) [5]: 3640 pM
B2: N^ε1-[(4S)-4-carboxy-4-(19-carboxynonadecanoylamino)butanoyl]-[Asp14,Arg17,Pro21,Pro27,Pro34,Arg35]-h-amylin (peptide)
peptide: K([γGlu-C20 diacid])CNTATCATQRLADFLRHSSPNFGAIPSSTNVGPRTY-NH2
modifications: disulfide 2-7; N-terminus assumed
SMILES: CC[C@H](C)[C@H](NC(=O)[C@H](C)NC(=O)CNC(=O)[C@H](Cc1ccccc1)NC(=O)[C@H](CC(N)=O)NC(=O)[C@@H]1CCCN1C(=O)[C@H](CO)NC(=O)[C@H](CO)NC(=O)[C@H](Cc1c[nH]cn1)NC(=O)[C@H](CCCNC(=N)N)NC(=O)[C@H](CC(C)C)NC(=O)[C@H](Cc1ccccc1)NC(=O)[C@H](CC(=O)O)NC(=O)[C@H](C)NC(=O)[C@H](CC(C)C)NC(=O)[C@H](CCCNC(=N)N)NC(=O)[C@H](CCC(N)=O)NC(=O)[C@@H](NC(=O)[C@H](C)NC(=O)[C@@H]1CSSC[C@H](NC(=O)[C@@H](N)CCCCNC(=O)CC[C@H](NC(=O)CCCCCCCCCCCCCCCCCCC(=O)O)C(=O)O)C(=O)N[C@@H](CC(N)=O)C(=O)N[C@@H]([C@@H](C)O)C(=O)N[C@@H](C)C(=O)N[C@@H]([C@@H](C)O)C(=O)N1)[C@@H](C)O)C(=O)N1CCC[C@H]1C(=O)N[C@@H](CO)C(=O)N[C@@H](CO)C(=O)N[C@H](C(=O)N[C@@H](CC(N)=O)C(=O)N[C@H](C(=O)NCC(=O)N1CCC[C@H]1C(=O)N[C@@H](CCCNC(=N)N)C(=O)N[C@H](C(=O)N[C@@H](Cc1ccc(O)cc1)C(N)=O)[C@@H](C)O)C(C)C)[C@@H](C)O

Ratio hCT/hAmylin funct. (hCTR EC50 against hAmylin-R EC50) [1]: 8.9
hCTR funct. EC50 [1]: 3430 pM
hAmylin-R funct. EC50 [2]: 386 pM
IC50 [3]: 0.597 nM
B5: N^α1 N^α1-[(4S)-4-carboxy-4-[[(4S)-4-carboxy-4-(19-carboxynonadecanoylamino)butanoyl]amino]butanoyl]-[Glu14,Arg17,Pro21,Pro27]-h-amylin (peptide)
peptide: {C20 diacid-γGlu-γGlu}-KCNTATCATQRLAEFLRHSSPNFGAIPSSTNVGSNTY-NH2
modifications: disulfide 2-7
SMILES: CC[C@H](C)[C@H](NC(=O)[C@H](C)NC(=O)CNC(=O)[C@H](Cc1ccccc1)NC(=O)[C@H](CC(N)=O)NC(=O)[C@@H]1CCCN1C(=O)[C@H](CO)NC(=O)[C@H](CO)NC(=O)[C@H](Cc1c[nH]cn1)NC(=O)[C@H](CCCNC(=N)N)NC(=O)[C@H](CC(C)C)NC(=O)[C@H](Cc1ccccc1)NC(=O)[C@H](CCC(=O)O)NC(=O)[C@H](C)NC(=O)[C@H](CC(C)C)NC(=O)[C@H](CCCNC(=N)N)NC(=O)[C@H](CCC(N)=O)NC(=O)[C@@H](NC(=O)[C@H](C)NC(=O)[C@@H]1CSSC[C@H](NC(=O)[C@H](CCCCN)NC(=O)CC[C@H](NC(=O)CC[C@H](NC(=O)CCCCCCCCCCCCCCCCCCC(=O)O)C(=O)O)C(=O)O)C(=O)N[C@@H](CC(N)=O)C(=O)N[C@@H]([C@@H](C)O)C(=O)N[C@@H](C)C(=O)N[C@@H]([C@@H](C)O)C(=O)N1)[C@@H](C)O)C(=O)N1CCC[C@H]1C(=O)N[C@@H](CO)C(=O)N[C@@H](CO)C(=O)N[C@H](C(=O)N[C@@H](CC(N)=O)C(=O)N[C@H](C(=O)NCC(=O)N[C@@H](CO)C(=O)N[C@@H](CC(N)=O)C(=O)N[C@H](C(=O)N[C@@H](Cc1ccc(O)cc1)C(N)=O)[C@@H](C)O)C(C)C)[C@@H](C)O
notes: also called compound 15
